Source: patent US20110143953A1 (ARIZONA BOARD OF REGENTS A BODY CORPORATE OF THE STATE OF …, published 2011)

T1: Gal80 (UniProt P04387 1-435, limits assumed, labelled with Cy3 or Cy5 in the peptide array screen)
T1 sequence (looked up): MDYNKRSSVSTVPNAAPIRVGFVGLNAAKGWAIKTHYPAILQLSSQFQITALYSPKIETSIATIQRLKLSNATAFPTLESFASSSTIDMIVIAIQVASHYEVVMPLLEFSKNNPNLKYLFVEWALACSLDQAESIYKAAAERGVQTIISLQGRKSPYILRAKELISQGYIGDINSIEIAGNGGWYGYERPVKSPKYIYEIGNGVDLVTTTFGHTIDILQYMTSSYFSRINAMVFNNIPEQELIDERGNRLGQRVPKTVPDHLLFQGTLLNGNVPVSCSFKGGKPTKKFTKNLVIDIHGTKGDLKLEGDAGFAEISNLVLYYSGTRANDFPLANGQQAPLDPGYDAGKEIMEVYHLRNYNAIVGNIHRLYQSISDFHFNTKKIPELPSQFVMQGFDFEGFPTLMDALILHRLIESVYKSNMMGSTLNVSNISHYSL


Tests used:
Gal80 [1] = molecular target: T1, Gal80; assay: gel shift assay; gel shift assay
Gal80 [2] = molecular target: T1, Gal80; assay: SPR, synbody in solution (1 µM to 7.81 nM) on surface-bound Gal80; SPR, synbody in solution, surface-bound Gal80
transferrin = molecular target: T2, transferrin (UniProt P02787 20-698, randomly labelled at free amines with Alexa 555 in the peptide array screen; amine-coupled to the chip in SPR); assay: SPR (Biacore T100), transferrin immobilized, steady-state response
T2 construct: also called TRF
From the text: Flow rates and contact times are adjusted as necessary to provide the surface concentration of target desired for the intended application, and may vary by target. In general, for evaluating whether binding occurs, it is preferable to immobilize a relatively large quantity of target, and higher flow rates and/or longer contact times may be used. For determining kinetics, it is preferable to limit the amount of target immobilized so as to minimize rebinding and avidity effects, and lower flow rates and/or contact times may be used.
Candidate affinity elements for the transferrin synbody TRF19, TRF21, TRF23, TRF24, TRF25, and TRF26 were individually evaluated for solution phase KD with respect to transferrin by SPR analysis. […] For each experiment, response data were processed using a reference surface to correct for bulk refractive index changes and any non-specific binding. Data were also double referenced using responses from blank running buffer injections.

Gal80 [3] = molecular target: T1, Gal80; assay: SPR, gal80 immobilised on the chip, Kd from on and off rates

T2 sequence (P02787 20-698 limits assumed): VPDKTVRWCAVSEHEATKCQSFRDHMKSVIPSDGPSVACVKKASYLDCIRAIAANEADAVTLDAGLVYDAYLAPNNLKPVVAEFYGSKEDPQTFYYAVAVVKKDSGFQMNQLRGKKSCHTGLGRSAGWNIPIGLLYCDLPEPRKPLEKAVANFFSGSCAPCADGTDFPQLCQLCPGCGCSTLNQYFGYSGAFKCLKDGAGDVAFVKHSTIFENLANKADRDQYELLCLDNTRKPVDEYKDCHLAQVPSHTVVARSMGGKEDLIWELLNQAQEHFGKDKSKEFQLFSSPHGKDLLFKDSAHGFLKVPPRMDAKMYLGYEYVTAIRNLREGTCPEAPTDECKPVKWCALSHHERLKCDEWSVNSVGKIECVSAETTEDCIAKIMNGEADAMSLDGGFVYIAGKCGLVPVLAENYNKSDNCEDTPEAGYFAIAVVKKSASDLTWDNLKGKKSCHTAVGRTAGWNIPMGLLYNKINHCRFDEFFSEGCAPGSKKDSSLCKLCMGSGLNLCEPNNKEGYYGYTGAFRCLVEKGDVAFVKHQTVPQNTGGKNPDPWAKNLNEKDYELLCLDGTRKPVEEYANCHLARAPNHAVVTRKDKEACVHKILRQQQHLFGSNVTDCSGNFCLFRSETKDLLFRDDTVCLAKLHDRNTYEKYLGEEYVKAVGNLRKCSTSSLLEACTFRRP

| Kd (transferrin) [µM] | Binder | also measured |
| --- | --- | --- |
|  | linker-optimized BP1/BP2 DNA-linked synbody (BP1 on the template strand, BP2 at position 13 from the 3' end of the variable strand) (designed binder, not fully specified; C-terminal cysteine conjugated through SMCC to the amine-modified cytosine at position 13 from the 3' end of the DNA variable strand (SEQ ID NO: 15); C-terminal cysteine conjugated through SMCC to the amine-modified 5' terminal cytosine of the DNA template strand (SEQ ID NO: 14), The two peptides are held about 5 nm apart by a double-stranded DNA linker; also called Gal80 synbody; gal80 synbody) peptide 1: GTEKGTSGWLKTGSC peptide 2: EGEWTEGKLSLRGSC | Kd (Gal80 [1]): ~0.1 µM; Kd (Gal80 [2]): 0.091 µM |
| ~50 | SVKPWRPLLTGNRWLNSGSC [TRF24] |  |
| ~60 | APYAPQQIHYWSTLGFKGSC (20-mer random peptide) [TRF25] |  |
| ~50 | FRGWAHIFFGPHVIYRGGSC (20-mer random peptide) [TRF23] |  |
| ~100 | AHKVVPQRQIRHAYNRYGSC (20-mer random peptide) [TRF26] |  |
|  | GTEKGTSGWLKTGSC (chain 1 pos 15: Cys thiol joined via SMCC maleimide to an amine-modified cytosine of the double-stranded DNA linker. The DNA cannot be carried by the letters., also called BP1 complexed by itself to the double-stranded DNA linker) [BP1 on dsDNA] | Kd (Gal80 [3]): 0.482 µM |
| ~60 | QYHHFMNLKRQGRAQAYGSC (20-mer random peptide) [TRF21] |  |
|  | EGEWTEGKLSLRGSC (chain 1 pos 15: Cys thiol joined via SMCC maleimide to an amine-modified cytosine of the double-stranded DNA linker. The DNA cannot be carried by the letters., also called BP2 complexed by itself to the double-stranded DNA linker) [BP2 on dsDNA] | Kd (Gal80 [3]): 0.982 µM |
| ~150 | KEDNPGYSSEQDYNKLDGSC (20-mer random peptide; on the array it is attached by its C-terminal cysteine to the surface) [TRF19] |  |
